The Kd is the constant that tells how readily two partners part at equilibrium. A low value points to tighter binding.

The text below walks through data of paper PMC3326319.

Where only a bound is given, the exact number is not on record here.

Series [1] deals with T1, PhNob1Zn (Pyrococcus horikoshii, UniProt O58440 121-161).
T1 chain: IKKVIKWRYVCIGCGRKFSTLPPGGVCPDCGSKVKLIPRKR
The series can be described thus: NMR titration.

Series [2] concerns the target T1, PhNob1Zn. The series can be described thus: fluorescence anisotropy.
A further series has as its target T2, PhNob1 (Pyrococcus horikoshii, UniProt O58440 1-161).
T2 sequence: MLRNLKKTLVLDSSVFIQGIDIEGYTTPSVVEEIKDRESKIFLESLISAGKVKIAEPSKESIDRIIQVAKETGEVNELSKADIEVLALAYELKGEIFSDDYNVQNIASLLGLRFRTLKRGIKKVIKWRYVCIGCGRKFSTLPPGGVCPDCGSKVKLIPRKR
The series can be described thus: fluorescence anisotropy. A general note: In fluorescence polarisation assays a small probe gives low polarisation when free and higher when bound to something large.

In the case of GACUGCCGGCGAUAAGCCGGAGGAAG (structured_RNA) [PhH40 unlabeled (gel filtration, NMR)], the Kd with PhNob1Zn [1] was < 1000 nM.

CCGGCGAUAAGCCGG (structured_RNA) [PhH40short (H40S)] had a Kd with PhNob1Zn [2] of 3100 ± 200 nM.

GACUGCCGGCGAUAAGCCGGAGGAAG (structured_RNA) [PhH40 (helix 40)]: the figures for the Kd with PhNob1 and with PhNob1Zn [2] were 2000 ± 100 nM and 2300 ± 100 nM, respectively.

In the series with PhNob1Zn [2], UACAGGGCCCAUUGGGGCCCUGUA (structured_RNA) [ScH16 (stabilized)] returned a Kd of 1500 ± 200 nM.
